Experimental findings from paper PMC8263732, “M1BP cooperates with CP190 to activate transcription at TAD borders and promote chromatin insulator activity” (Nature Communications, 2021) are described below.

B1: Suppressor of Hairy wing [Su(Hw)] (natural protein, UniProt P08970 1-941, looked up)
chain: MSASKEGKEKKGKLLGVENISPPKDKRPATRMKLLNDVGAGEDSEASTTTTTSRTPSNKQEKRGSVAGSRIKILNEEILGTPKTEKRGATKSTAPAASTVKILNEKKTPSATVTAVETTKIKTSPSKRKKMEHYVLQAVKSENTKADTTVTVVTEEDDTIDFILADDEEVVPGRIENNNGQEIVVTEDDEDLGEDGDEDGEDSSGKGNSSQTKIKEIVEHVCGKCYKTFRRVQSLKKHLEFCRYDSGYHLRKADMLKNLEKIEKDAVVMEKKDICFCCSESYDTFHLGHINCPDCPKSFKTQTSYERHIFITHSEFSDFPCSICNANLRSEALLALHEEQHKSRGKPYACKICGKDFTRSYHLKRHQKYSSCSSNETDTMSCKVCDRVFYRLDNLRSHLKQHLGTQVVKKPEYMCHTCKNCFYSLSTLNIHIRTHTGEKPFDCDLCDKKFSALVALKKHRRYHTGEKPYSCTVCNQAFAVKEVLNRHMKRHTGERPHKCDECGKSFIQATQLRTHSKTHIRPFPCEQCDEKFKTEKQLERHVKTHSRTKRPVFSCAECKRNFRTPALLKEHMDEGKHSPKQQRSSMRSAVKIMERTDCAICDKNFDSSDTLRRHIRTVHECDPDDIFGVEPHPSKRAKKDIESEEVVPVALNTSAGSLISSQTDGNGVVVREFLVDEGDGAAQTITLENETYTILPLDGAIEGEQLTDEAGVKPEAKKEEAQVSPVVKKEQRKSLAASLAAAIADNLEESCSEDDFSGEILTEEDIKLKENVGKLIDMLVDPPILKKYGWPNAPEETVLCKVIENCGHDLTKGGENYAELDYGSRMREYCKLLFTVVIHNDSIKSLLNNFPIDDVIEYVLGDEDQDEGGLDKDNESHSGDEEAVSVTGETKTNEIREKPEKKEVSAKSEKKEIVGKAVDKDNSEEVVRENKKKPVGEQEKA
notes: endogenous protein in embryonic nuclear extract; source: endogenous, nuclear extract of 0-24 h Drosophila embryos
B2: Centrosomal protein 190 (CP190) (natural protein, UniProt Q24478 1-1096, looked up)
chain: MGEVKSVKVDNWGVFFLQKLQNFFNKTDYCDLTLQFRDNSQLKVHRLVLSACTDYFNVLEQTCEIVDDALIMPNEFQADVVVPIVNFMYTGTLEFELKMYGKLLRTAKEMNMTVLLKLLEAHRRTMENVNRQQRPPSPKGIRRRTVGQPSSGLPQQRVLGPSPQSRNVATPIAQRANTQRGSTGNTMSRTSGGSNRSPYGDSSNVKQEPTSPFEQLRKGYNNNKRPAQTSLLSPPSKKPSLEEVKEFAEQQRMRKQIAAEYGDNDPEYDGGMLYDDVHAGDDDDDDMPPQPSTSKQQSPQGTQTQLEHGSTTIILKQDSPSQTPTIIVKDSSNAKLNHTKIIAEVLRQYPHIVKGHKNIKLKIMPNTPAAPTEKSAPATVKPPANQSSATTSPHKKLHVSFKADKSTPLITAQQKAASSQQKSGTSQTTGNQGTGANPPANTAAAQKRRIDSKTMHALIAQGAENTTGPWLCLRCGVNGRPISIPSYRGFRRHLINTHKETIDPALCEHCGWRSVNNRELHFHMYMEHQTKSLLYTFAECALCNQSYRTKGELEAHINEVHTDDNKQQCIYCNKVFEQELQLYRHMKSYHKEQALEDGIIDETDEEFLGSQDEEEEAEGDEEQEPEQTGKVRILSDISLPATSAITVQQAQQEQLQEEDVEQVQQEVKFVGADGNEVELTDEQRKEILSQLNQQQAGATAGGVVMVLSEPEAEHVKQETDEKSLAGTEEEYDDSQIYSELGAADSVESAKKNIADESKESIDNLEWAENLIAESEEQSNKEPKSDKPRDDISEKLKELTGDWTEDENDDDVDDKPATAELASELANKDPEPTVHEEEDDIDLALQSLHKGPEEATEEKASEESVTSADDAVDAVPNINSQPEKMDVDSEAADEKASKAEVQIKKEAELENDQEEFIKEDSPIPHSDSVAELREAVTASEGEDDVHLEADNIRKELLDELIAEAEKPDQEKDIVQSEENATTEALDRSVTDEDDLVPPTQVSTEQMEIDEPAAEKAAENNEDTRTADEKEAVEDKPNQTQDVTTAEKPTLESAKAGDEATSGEAASVDKVKSLISEWGDDDEDEDENGVSAAAKEEL
notes: Centrosomal protein 190 (CP190), universal insulator protein of Drosophila; endogenous protein in embryonic nuclear extract; source: endogenous, nuclear extract of 0-24 h Drosophila embryos

Assay in all cases: co-IP; 500 ug nuclear extract of 0-24 h Drosophila embryos incubated overnight at 4 C with antiserum (anti-Su(Hw), anti-CP190, anti-Mod(mdg4)67.2 or anti-M1BP; normal serum as control) cross-linked to Protein A or G Sepharose; washed twice with HBSMT and once with HBSM; western blotting; efficiency as percent of total input protein
Holding throughout (conditions): partners not purified
On the technique in general: In western blotting, separated proteins are transferred to a membrane and probed.

The target in assay [1] is B2.
Assay [2] addresses T1, Modifier of mdg4 [Mod(mdg4)] 67.2 kDa isoform [Mod(mdg4)67.2] (Drosophila (endogenous in 0-24 h Oregon …, UniProt Q86B87 1-610)).
T1 construct: Modifier of mdg4, the 67.2 kDa isoform, Drosophila; The gene has many isoforms; the 67.2 kDa isoform is meant; to be checked; source: endogenous, nuclear extract of 0-24 h Drosophila embryos
T1 sequence (looked up): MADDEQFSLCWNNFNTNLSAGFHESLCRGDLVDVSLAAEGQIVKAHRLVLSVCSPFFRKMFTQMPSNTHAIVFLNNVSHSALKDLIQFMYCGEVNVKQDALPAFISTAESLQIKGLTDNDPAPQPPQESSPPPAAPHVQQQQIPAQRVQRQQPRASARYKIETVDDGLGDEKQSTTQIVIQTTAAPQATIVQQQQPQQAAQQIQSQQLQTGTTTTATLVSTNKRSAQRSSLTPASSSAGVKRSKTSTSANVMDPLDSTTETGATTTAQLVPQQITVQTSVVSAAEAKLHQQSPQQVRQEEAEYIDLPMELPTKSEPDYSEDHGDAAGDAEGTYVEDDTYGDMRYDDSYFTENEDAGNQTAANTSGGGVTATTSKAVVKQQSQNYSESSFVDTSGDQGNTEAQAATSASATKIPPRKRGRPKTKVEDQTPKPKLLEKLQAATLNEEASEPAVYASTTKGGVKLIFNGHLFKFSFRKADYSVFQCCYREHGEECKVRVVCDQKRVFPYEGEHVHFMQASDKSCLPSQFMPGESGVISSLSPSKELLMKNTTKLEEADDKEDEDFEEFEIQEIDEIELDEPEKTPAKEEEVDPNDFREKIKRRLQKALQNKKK

Assay [3] addresses T2, Motif 1 Binding Protein (M1BP) (Drosophila (endogenous in 0-24 h Oregon …, UniProt Q9VHM3 1-418)).
T2 construct: endogenous protein in embryonic nuclear extract; source: endogenous, nuclear extract of 0-24 h Drosophila embryos
T2 sequence (looked up): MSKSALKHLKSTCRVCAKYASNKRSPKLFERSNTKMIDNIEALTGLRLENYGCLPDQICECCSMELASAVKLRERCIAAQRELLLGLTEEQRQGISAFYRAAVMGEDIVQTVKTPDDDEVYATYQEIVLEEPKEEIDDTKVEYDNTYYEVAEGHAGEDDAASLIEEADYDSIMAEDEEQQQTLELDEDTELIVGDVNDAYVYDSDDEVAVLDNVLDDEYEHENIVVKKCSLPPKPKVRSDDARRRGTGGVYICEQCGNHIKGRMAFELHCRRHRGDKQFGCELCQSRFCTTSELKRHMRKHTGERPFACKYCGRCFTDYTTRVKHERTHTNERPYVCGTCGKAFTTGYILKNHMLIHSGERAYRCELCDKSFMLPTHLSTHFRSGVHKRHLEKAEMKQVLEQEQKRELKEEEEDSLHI

In assay [4] the target is B1.

Turning to B1, in assay [1], the “percent of total protein immunoprecipitated with anti-CP190” value came out at 7%. Besides, the “percent of total protein immunoprecipitated with anti-Mod(mdg4)67.2” value in assay [2] stood at 8.5%. Further, in assay [3], the “percent of total protein immunoprecipitated with anti-M1BP” value was 2.6%.

Regarding B2, the “percent of total protein immunoprecipitated with anti-Su(Hw)” value in assay [4] came out at 5.2%. For the same molecule, in assay [2], the “percent of total protein immunoprecipitated with anti-Mod(mdg4)67.2” value amounted to 11%. The “percent of total protein immunoprecipitated with anti-M1BP” value in assay [3] came to 3.8%.
